Data reported in article PMC3210151 (2011).

What was measured:
RON constructs = assay: SPR; dimeric MSPβ R689C on RON constructs; method and conditions not told in the sentence (SPR is the paper's only binding method)
[1] = target: RON Sema-PSI-IPT1 (Glu25-Glu683) (human) (UniProt Q04912); assay: SPR; Biacore T100; RON constructs amine-coupled to a CM5 chip; MSPβ as analyte (wild type 5-500 nM, R689C 32-2000 nM); 10 mM Na-HEPES pH 8.0, 150 mM NaCl, 0.005% P20, 25°C; global fit to a 1:1 Langmuir kinetic model
[2] = target: RON Sema-PSI-IPT1–4 (Glu25-Ser956) (human) (UniProt Q04912); assay: as above
[3] = target: RON Sema (Glu25-Gly524) (human) (UniProt Q04912); assay: as above
[4] = target: RON Sema-PSI (Glu25-Pro568) (human) (UniProt Q04912); assay: as above
[5] = target: RON Sema-PSI-IPT1 (Glu25-Glu683) (human) (UniProt Q04912); assay: SPR; same sensorgrams as the kinetic analysis (RON constructs amine-coupled to CM5, MSPβ as analyte, 10 mM Na-HEPES pH 8.0, 150 mM NaCl, 0.005% P20, 25°C); Kd from an equilibrium model
[6] = target: RON Sema-PSI-IPT1–4 (Glu25-Ser956) (human) (UniProt Q04912); assay: as above
[7] = target: RON Sema (Glu25-Gly524) (human) (UniProt Q04912); assay: as above
[8] = target: RON Sema-PSI (Glu25-Pro568) (human) (UniProt Q04912); assay: as above
[9] = target: MSPβ R689C (Phe465-Gly711, C672S, R689C) (human, UniProt P26927 465-711, C672S | R689C); assay: SPR; solution competition
[10] = target: wild type MSPβ (macrophage stimulating protein β-chain with the adjoining 19 residues of the α-chain, … (human, UniProt P26927 465-711, C672S)); assay: SPR; solution competition

Row | Molecule | Kd (RON constructs) [nM] | Kd [1] [nM] | koff [1] [s⁻¹] | kon [1] [M⁻¹ s⁻¹] | Kd [2] [nM] | koff [2] [s⁻¹] | kon [2] [M⁻¹ s⁻¹] | Kd [3] [nM] | koff [3] [s⁻¹] | kon [3] [M⁻¹ s⁻¹] | Kd [4] [nM] | koff [4] [s⁻¹] | kon [4] [M⁻¹ s⁻¹] | Kd [5] [nM] | Kd [6] [nM] | Kd [7] [nM] | Kd [8] [nM] | Kd [9] [nM] | Kd [10] [nM]
1 | dimeric MSPβ R689C (from UniProt P26927 465-711) (complex) | 3.7 to 4.9 | – | – | – | – | – | – | – | – | – | – | – | – | – | – | – | – | – | –
2 | wild type MSPβ (macrophage stimulating protein β-chain with the adjoining 19 residues of the α-chain, Phe465-Gly711, C672S) (from UniProt P26927 465-711) (domain or fragment) | – | 15.1 | 0.027 | 1.76e+06 | 13.5 | 0.023 | 1.69e+06 | 13.3 | 0.031 | 2.31e+06 | 21.2 | 0.028 | 1.33e+06 | 17.8 | 22.6 | 16.4 | 32 | – | –
3 | MSPβ R689C (Phe465-Gly711, C672S, R689C) (from UniProt P26927 465-711) (domain or fragment) | – | 148 | 0.129 | 870000 | 157 | 0.055 | 350000 | 170 | 0.081 | 480000 | 233 | 0.062 | 270000 | 154 | 158 | 139 | 244 | – | –
4 | RON Sema-PSI-IPT1–4 (Glu25-Ser956) (domain or fragment) EDWQCPRTPYAASRDFDVKYVVPSFSAGGLVQAMVTYEGDRNESAVFVAIRNRLHVLGPDLKSVQSLATGPAGDPGCQTCAACGPGPHGPPGDTDTKVLVLDPALPALVSCGSSLQGRCFLHDLEPQGTAVHLAAPACLFSAHHNRPDDCPDCVASPLGTRVTVVEQGQASYFYVASSLDAAVAASFSPRSVSIRRLKADASGFAPGFVALSVLPKHLVSYSIEYVHSFHTGAFVYFLTVQPASVTDDPSALHTRLARLSATEPELGDYRELVLDCRFAPKLVPRGSPEGGQPYPVLRVAHSAPVGAQLATELSIAEGQEVLFGVFVTGKDGGPGVGPNSVVCAFPIDLLDTLIDEGVERCCESPVHPGLRRGLDFFQSPSFCPNPPGLEALSPNTSCRHFPLLVSSSFSRVDLFNGLLGPVQVTALYVTRLDNVTVAHMGTMDGRILQVELVRSLNYLLYVSNFSLGDSGQPVQRDVSRLGDHLLFASGDQVFQVPIQGPGCRHFLTCGRCLRAWHFMGCGWCGNMCGQQKECPGSWQQDHCPPKLTEFHPHSGPLRGSTRLTLCGSNFYLHPSGLVPEGTHQVTVGQSPCRPLPKDSSKLRPVPRKDFVEEFECELEPLGTQAVGPTNVSLTVTNMPPGKHFRVDGTSVLRGFSFMEPVLIAVQPLFGPRAGGTCLTLEGQSLSVGTSRAVLVNGTECLLARVSEGQLLCATPPGATVASVPLSLQVGGAQVPGSWTFQYREDPVVLSISPNCGYINSHITICGQHLTSAWHLVLSFHDGLRAVESRCERQLPEQQLCRLPEYVVRDPQGWVAGNLSARGDGAAGFTLPGFRFLPPPHPPSANLVPLKPEEHAIKFEYIGLGAVADCVGINVTVGGESCQHEFRGDMVVCPLPPSLQLGQDGAPLQVCVDGECHILGRVVRPGPDGVPQS | – | – | – | – | – | – | – | – | – | – | – | – | – | – | – | – | – | 381 | 52.8
5 | RON Sema (Glu25-Gly524) (domain or fragment) EDWQCPRTPYAASRDFDVKYVVPSFSAGGLVQAMVTYEGDRNESAVFVAIRNRLHVLGPDLKSVQSLATGPAGDPGCQTCAACGPGPHGPPGDTDTKVLVLDPALPALVSCGSSLQGRCFLHDLEPQGTAVHLAAPACLFSAHHNRPDDCPDCVASPLGTRVTVVEQGQASYFYVASSLDAAVAASFSPRSVSIRRLKADASGFAPGFVALSVLPKHLVSYSIEYVHSFHTGAFVYFLTVQPASVTDDPSALHTRLARLSATEPELGDYRELVLDCRFAPKLVPRGSPEGGQPYPVLRVAHSAPVGAQLATELSIAEGQEVLFGVFVTGKDGGPGVGPNSVVCAFPIDLLDTLIDEGVERCCESPVHPGLRRGLDFFQSPSFCPNPPGLEALSPNTSCRHFPLLVSSSFSRVDLFNGLLGPVQVTALYVTRLDNVTVAHMGTMDGRILQVELVRSLNYLLYVSNFSLGDSGQPVQRDVSRLGDHLLFASGDQVFQVPIQG | – | – | – | – | – | – | – | – | – | – | – | – | – | – | – | – | – | – | 17.6
